Assay [1] concerns the target T1, Recombinant human CD123 SP1 ECD-His tag protein (human, UniProt P26951 20-305).
T1 construct: bought from R&D Systems (#301-R3/CF); biotinylated for some assays; also called rhCD123 SP1; huCD123 ECD SP1
T1 sequence: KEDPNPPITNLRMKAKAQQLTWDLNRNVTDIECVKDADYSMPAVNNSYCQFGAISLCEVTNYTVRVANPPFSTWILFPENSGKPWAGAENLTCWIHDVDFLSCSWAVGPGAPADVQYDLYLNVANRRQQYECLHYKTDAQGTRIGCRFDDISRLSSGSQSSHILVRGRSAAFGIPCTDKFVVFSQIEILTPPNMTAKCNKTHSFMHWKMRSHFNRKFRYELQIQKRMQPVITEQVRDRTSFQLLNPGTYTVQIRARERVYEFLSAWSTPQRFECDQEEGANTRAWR
Description: SPR Biacore 3000, captured mAb. As for the experimental part:
(§1) Kinetic studies were performed at 25° C. using a Biacore 3000 (BIAcore, Inc., now part of GE Healthcare). […] Sheep anti-Human Fd specific antibody (The binding site Prod # PC075) was covalently attached to two flow cells (normally 3 and 4) of the carboxymethyl dextran coated gold surfaces (CM-5 Chip, Biacore). The carboxymethyl groups of dextran were activated with N-Ethyl-N′-(3-Dimethylaminopropyl)carbodiimide (EDC) and N-hydroxysuccinimide (NHS). The antibodies were coupled at pH 4.5 in 10 mM sodium acetate. Any remaining reactive sites on the surface were blocked by reaction with ethanolamine. […] Association data was collected for 2 min followed by 10 min of dissociation. The surface was regenerated with 30 μL of 100 mM H3PO4 100 μL/min. All samples were prepared in D-PBS containing 3 mM EDTA and 0.005% surfactant P20. Data reported is the difference in SPR signal between the flow cell containing the captured antibody or Fab and a reference cell without captured antibody or Fab. Additional instrumental contributions to the signal were removed by subtraction of the data from the blank injection from the reference-subtracted signal. Data were performed in triplicate and analyzed by fitting association and dissociation phases at all concentrations (global fit) with a 1:1 binding model using the BIAevaluation software (BIAcore, Inc.). […] Data presented is an average.
For orientation: SPR reads the build-up and loss of mass on a sensor chip optically.

Assay [2] has as its target T2, Recombinant human CD123 SP2 ECD protein (human, UniProt P26951 101-303).
T2 construct: also called rhCD123 SP2; CD123 ECD SP2
T2 sequence: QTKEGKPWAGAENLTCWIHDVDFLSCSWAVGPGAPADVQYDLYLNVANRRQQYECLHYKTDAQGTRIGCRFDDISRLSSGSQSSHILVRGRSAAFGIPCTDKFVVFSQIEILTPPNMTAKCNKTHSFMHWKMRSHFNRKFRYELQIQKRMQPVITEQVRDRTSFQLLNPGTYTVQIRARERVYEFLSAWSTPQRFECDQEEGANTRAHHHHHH
Description: SPR Biacore 3000, captured mAb. As for the experimental part:
as §1

The target in assay [3] is T3, human CD123 SP2 ECD displayed on pDisplay-transfected cells (human, UniProt P26951 101-305).
T3 construct: ECD anchored on the surface of stably transfected HEK293 cells; also called hCD123 SP2 cells; pDisplay CD123SP2
T3 sequence: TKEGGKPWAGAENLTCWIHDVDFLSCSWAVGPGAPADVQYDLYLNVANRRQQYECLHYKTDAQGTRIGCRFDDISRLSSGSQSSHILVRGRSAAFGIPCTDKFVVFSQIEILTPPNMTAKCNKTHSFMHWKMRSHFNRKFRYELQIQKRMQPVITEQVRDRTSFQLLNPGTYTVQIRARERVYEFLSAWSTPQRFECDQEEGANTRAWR
Kind of assay: MSD-CAT on pDisplay cells. As for the experimental part:
(§2) The MSD-CAT was developed in-house as a label-free method to determine affinity using intact cells in a high throughput format. […] Cell lines used were human pDisplay CD123SP1 and pDisplay CD123SP2. […] These samples were prepared in DMEM Glutamax medium containing 0.05% Azide, 1% BSA, 3 mM EDTA. […] After equilibration the plate was centrifuged for 5 minutes ˜1000 rpm and free anti-CD3 detected on the supernatant. […] The assay buffer was removed without washing and 50 uL/well of 0.7 ug/mL of biotinylated antigen in assay buffer were added to MSD plates and incubated overnight (˜16 hours at 4° C.).

Assay [4] concerns the target T1, Recombinant human CD123 SP1 ECD-His tag …. Description: SPR ProteOn, captured mAb.
Assay [5] deals with T2, Recombinant human CD123 SP2 ECD protein. Kind of assay: SPR ProteOn, captured mAb.
For assay [6], the target named is T4, cell-surface CD3 epsilon on primary cynomolgus T cells (cynomolgus monkey, UniProt Q95LI5 22-198).
T4 construct: whole, on cells; also called cynomolgus CD3e; Cyno T-cells
Description: flow cytometry competition with labeled CD3B146 on T cells. From the text: (§3) The format involved competition binding using a fixed concentration of labeled anti-CD3 mAb of known affinity and increasing concentrations of unlabeled test Abs (Ashkenazi A et al. PNAS: 88:10535, 1991.).

Assay [7] has as its target T5, cell-surface CD3 epsilon on primary human T cells (human, UniProt P07766 23-207).
T5 construct: whole, on cells; part of the CD3/TCR complex on the cells
Described as above.
Source text: as §3

Assay [8] concerns the target T1, Recombinant human CD123 SP1 ECD-His tag …. Kind of assay: SPR Biacore T200, captured antibody. As for the experimental part:
(§4) Kinetic studies were performed at 25° C. using a Biacore T200 (Biacore, Inc., now part of GE Healthcare). […] The carboxymethyl groups of dextran were activated with N-Ethyl-N′-(3-Dimethylaminopropyl)carbodiimide (EDC) and N-hydroxysuccinimide (NHS). The anti-Fc antibody was coupled at pH 4.5 in 10 mM sodium acetate. Any remaining reactive sites on the surface were blocked by reaction with ethanolamine. […] 40-70 RU of antibody were captured. […] Association data was collected for 2 min followed by 10 min of dissociation. The surface was regenerated with 30 μL of 100 mM H3PO4 100 μL/min, followed by 50 mM NaOH. The samples for kinetic analysis were prepared in PBS-based buffer (D-PBS containing 3 mM EDTA and 0.005% surfactant P20). Data reported is the difference in SPR signal between the flow cell containing the captured antibody and a reference cell without captured antibody. Additional instrumental contributions to the signal were removed by subtraction of the data from the blank injection from the reference-subtracted signal. Data were analyzed by fitting association and dissociation phases at all concentrations (global fit) with a 1:1 binding model using the BIAevaluation software (BIAcore, Inc.).

Assay [9] concerns the target T2, Recombinant human CD123 SP2 ECD protein. Kind of assay: SPR Biacore T200, captured antibody. How it is done: as §4
Assay [10] addresses T6, human CD123 SP1 ECD displayed on pDisplay-transfected cells (human, UniProt P26951 20-305).
T6 construct: ECD anchored on the surface of stably transfected HEK293 cells by the PDGFR transmembrane domain; also called hCD123 SP1 cells; hCD123 cells
T6 sequence: T1 sequence
Description: MSD-CAT on pDisplay cells. As for the experimental part: as §2

The target of assay [11] is T5, cell-surface CD3 epsilon on primary …. Kind of assay: competition flow cytometry on primary human T cells (Human Donor 10357); competitor displaced: Alexa Fluor 488-labelled CD3B146.
Source text: as §3
In general terms: Flow cytometry measures light scatter and fluorescence of single cells or particles in a stream.

T5 sequence (P07766 23-207): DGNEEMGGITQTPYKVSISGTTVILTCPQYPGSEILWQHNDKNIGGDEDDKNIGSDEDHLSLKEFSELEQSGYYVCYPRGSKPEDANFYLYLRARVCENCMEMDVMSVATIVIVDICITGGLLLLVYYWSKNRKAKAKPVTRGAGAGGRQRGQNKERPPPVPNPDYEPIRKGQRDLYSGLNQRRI
T4 sequence (Q95LI5 22-198): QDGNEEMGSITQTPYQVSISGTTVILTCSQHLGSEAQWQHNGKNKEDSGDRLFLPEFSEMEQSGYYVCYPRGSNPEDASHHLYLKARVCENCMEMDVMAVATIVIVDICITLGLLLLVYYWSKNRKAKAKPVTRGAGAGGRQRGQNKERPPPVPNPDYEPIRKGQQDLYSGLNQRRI

B1: I3RB2 (antibody, IgG1, V domains shown)
VH: EVQLLESGGGLVQPGGSLRLSCAASGFTFSGYWMHWVRQAPGKGLEWVSAIRSDGSSKYYADSVKGRFTISRDNSKNTLYLQMNSLRAEDTAVYYCAKDGVIEDTFDYWGQGTLVTVSS
VL: EIVLTQSPATLSLSPGERATLSCRASQSVSSYLAWYQQKPGQAPRLLIYDASNRATGIPARFSGSGSGTDFTLTISSLEPEDFAVYYCQQRSNWPLTFGQGTKVEIK
notes: IgG1; also called I3RB02; 13RB2
In the case of B1, the Kd amounted to 7.7 nM in [1]; 1.4 nM in assay [2]; 0.036 nM in [3]; 4.5 nM in [4]; 1.85 nM in assay [5]. The koff was found to be 0.00372 s⁻¹ in assay [1], 0.00477 s⁻¹ in assay [4] and 0.00335 s⁻¹ in assay [5]. In addition, the kon amounted to 481000 M⁻¹ s⁻¹ in assay [1], 1.06e+06 M⁻¹ s⁻¹ in [4] and 1.81e+06 M⁻¹ s⁻¹ in assay [5].

B2: bispecific antibody Ab 8747 (bispecific antibody, human IgG4 S228P, kappa, lambda, F234A L235A)
heavy 1: EVQLVESGGGLVQPGGSLRLSCAASGFTFNTYAMNWVRQAPGKGLEWVARIRSKYNNYATYYAASVKGRFTISRDDSKNSLYLQMNSLKTEDTAVYYCARHGNFGNSYVSWFAYWGQGTLVTVSSASTKGPSVFPLAPCSRSTSESTAALGCLVKDYFPEPVTVSWNSGALTSGVHTFPAVLQSSGLYSLSSVVTVPSSSLGTKTYTCNVDHKPSNTKVDKRVESKYGPPCPPCPAPEAAGGPSVFLFPPKPKDTLMISRTPEVTCVVVDVSQEDPEVQFNWYVDGVEVHNAKTKPREEQFNSTYRVVSVLTVLHQDWLNGKEYKCKVSNKGLPSSIEKTISKAKGQPREPQVYTLPPSQEEMTKNQVSLTCLVKGFYPSDIAVEWESNGQPENNYKTTPPVLDSDGSFLLYSKLTVDKSRWQEGNVFSCSVMHEALHNHYTQKSLSLSLGK
light 1: QTVVTQEPSLTVSPGGTVTLTCRSSTGAVTTSNYANWVQQKPGQAPRGLIGGTNKRAPGTPARFSGSLLGGKAALTLSGVQPEDEAEYYCALWYSNLWVFGGGTKLTVLGQPKAAPSVTLFPPSSEELQANKATLVCLISDFYPGAVTVAWKADSSPVKAGVETTTPSKQSNNKYAASSYLSLTPEQWKSHRSYSCQVTHEGSTVEKTVAPTECS
heavy 2: not shown
light 2: not shown
In the case of B2, the Kd was found to be 9.5 nM in assay [6]; 9.6 nM in [7]; 14.3 nM in assay [8]; 1.63 nM in assay [9]; 2.21 nM in [3]; 1.76 nM in [10]. The figures for the koff in [8] and in assay [9] were 0.0048 s⁻¹ and 0.0052 s⁻¹, respectively. In addition, the kon was found to be 337000 M⁻¹ s⁻¹ in [8] and 3.19e+06 M⁻¹ s⁻¹ in [9]. The “IC50 (read off the curve)” value in assay [11] was around 20 nM.

The term Kd denotes the concentration at which binding is half-saturated. What is called koff is the first-order rate constant of dissociation. As usually defined, the kon is a measure of how fast the partners come together.

Source of the values: US20160068605A1 (Janssen / Centocor, published 2016).
